Test results taken from patent US20230287120A1 (ALLOGENE THERAPEUTICS, published 2023).

T1: human DLL3 on cells (endogenous on SHP-77, DMS 273, DMS 454; full length human DLL3 by lentivirus on HEK-293T) (human, UniProt Q9NYJ7 27-618)
T1 construct: whole, on cells
T1 sequence (looked up): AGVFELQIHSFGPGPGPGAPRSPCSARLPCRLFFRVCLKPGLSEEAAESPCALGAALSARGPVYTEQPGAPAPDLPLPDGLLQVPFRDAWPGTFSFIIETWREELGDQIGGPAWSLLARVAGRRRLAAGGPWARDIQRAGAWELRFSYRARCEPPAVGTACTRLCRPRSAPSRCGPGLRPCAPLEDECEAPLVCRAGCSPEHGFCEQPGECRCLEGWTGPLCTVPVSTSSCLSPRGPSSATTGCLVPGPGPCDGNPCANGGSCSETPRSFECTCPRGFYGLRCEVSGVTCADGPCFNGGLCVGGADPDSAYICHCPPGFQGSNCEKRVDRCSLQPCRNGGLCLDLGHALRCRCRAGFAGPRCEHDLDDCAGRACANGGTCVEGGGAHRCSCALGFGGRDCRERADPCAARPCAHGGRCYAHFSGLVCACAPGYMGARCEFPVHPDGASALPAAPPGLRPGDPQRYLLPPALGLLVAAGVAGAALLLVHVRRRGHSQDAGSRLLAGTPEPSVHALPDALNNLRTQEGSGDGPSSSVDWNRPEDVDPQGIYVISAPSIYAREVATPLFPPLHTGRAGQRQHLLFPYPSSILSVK

T2: full length human DLL3 with N-terminal HA tag, expressed on CHO cells (human, UniProt Q9NYJ7 27-618)
T2 construct: also called Human DLL3 complete ECD
T2 sequence: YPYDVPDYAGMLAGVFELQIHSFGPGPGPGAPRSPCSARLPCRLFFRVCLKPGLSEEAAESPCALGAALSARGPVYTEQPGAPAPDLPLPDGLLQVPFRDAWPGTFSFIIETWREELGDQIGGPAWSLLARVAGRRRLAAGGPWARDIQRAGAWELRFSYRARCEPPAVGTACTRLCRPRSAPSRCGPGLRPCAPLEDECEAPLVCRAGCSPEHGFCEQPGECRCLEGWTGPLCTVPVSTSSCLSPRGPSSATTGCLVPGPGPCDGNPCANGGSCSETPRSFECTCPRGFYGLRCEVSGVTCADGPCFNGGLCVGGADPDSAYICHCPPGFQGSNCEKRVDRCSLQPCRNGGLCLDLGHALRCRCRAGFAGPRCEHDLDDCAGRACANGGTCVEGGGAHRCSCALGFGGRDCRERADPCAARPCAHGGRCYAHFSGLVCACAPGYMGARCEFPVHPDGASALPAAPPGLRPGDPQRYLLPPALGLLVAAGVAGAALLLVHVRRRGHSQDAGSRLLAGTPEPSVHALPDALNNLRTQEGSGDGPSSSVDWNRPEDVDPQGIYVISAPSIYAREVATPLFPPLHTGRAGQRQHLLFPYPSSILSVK

T3: Flag tagged recombinant DLL3 (Adipogen) (Homo sapiens (Human), UniProt Q9NYJ7 27-492)
T3 construct: Bought reagent; also called Flag-DLL3
T3 sequence: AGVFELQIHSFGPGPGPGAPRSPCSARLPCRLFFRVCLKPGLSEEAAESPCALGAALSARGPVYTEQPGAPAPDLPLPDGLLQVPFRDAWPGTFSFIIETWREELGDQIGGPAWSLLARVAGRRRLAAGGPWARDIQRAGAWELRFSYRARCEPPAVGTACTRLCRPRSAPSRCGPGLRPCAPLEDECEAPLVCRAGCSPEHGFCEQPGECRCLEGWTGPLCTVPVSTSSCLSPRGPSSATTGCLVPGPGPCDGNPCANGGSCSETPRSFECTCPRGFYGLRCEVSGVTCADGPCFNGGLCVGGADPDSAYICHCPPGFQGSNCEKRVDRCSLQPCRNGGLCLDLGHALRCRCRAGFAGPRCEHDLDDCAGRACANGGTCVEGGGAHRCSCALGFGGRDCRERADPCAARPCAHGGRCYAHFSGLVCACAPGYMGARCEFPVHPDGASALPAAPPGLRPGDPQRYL

B1: anti-DLL3 antibody 10G1-K (antibody, V domains shown)
VH: EVQLLESGGGLVQPGGSLRLSCAASGFTFSSYAMNWVRQAPGKGLEWVSTISGSGGSTYYADSVKGRFTISRDNSKNTLYLQMNSLRAEDTAVFYCAIDPEYYDILTGGDYWGQGTLVTVSS
VL: DIQMTQSPSAMSASVGDRVTITCRASQGISNYLAWFQQKPGKVPKRLIYAASSLQSGVPSRFSGSGSGTEFTLTISSLQPEDFATYFCLQHDSFPLTFGGGTKVEIK
B2: 2G1 RSR (other)
CAR: GGGGSCPYSNPSLCGGGGSQLQLQESGPGLVKPSETLSLTCTVSGGSISSSSYYWGWIRQPPGKGLEWIGSIYYSGNIYHNPSLKSRVSISVDTSKNQFSLRLSSVTAADTAVYYCAREIIVGATHFDYWGQGTLVTVSSGGGGSGGGGSGGGGSGGGGSAIQMTQSPSSLSASVGDRVTITCRASQGIRNDLGWYQQKPGKAPELLIYAASSLQSGVPSRFSGSGSGTDFTLTISSLQPEDFATYYCLQDYNYPLTFGPGTKVDIKGGGGSCPYSNPSLCGGGGSTTTPAPRPPTPAPTIASQPLSLRPEACRPAAGGAVHTRGLDFACDIYIWAPLAGTCGVLLLSLVITKRGRKKLLYIFKQPFMRPVQTTQEEDGCSCRFPEEEEGGCELRVKFSRSADAPAYQQGQNQLYNELNLGRREEYDVLDKRRGRDPEMGGKPRRKNPQEGLYNELQKDKMAEAYSEIGMKGERRRGKGHDGLYQGLSTATKDTYDALHMQALPPR
notes: member of group m44; also called 2G1-RSR anti-DLL3 CAR with safety switch, on primary T cells
B3: 2G1 R2S (other)
CAR: GGGGSCPYSNPSLCGGGGSCPYSNPSLCGGGGSQLQLQESGPGLVKPSETLSLTCTVSGGSISSSSYYWGWIRQPPGKGLEWIGSIYYSGNIYHNPSLKSRVSISVDTSKNQFSLRLSSVTAADTAVYYCAREIIVGATHFDYWGQGTLVTVSSGGGGSGGGGSGGGGSGGGGSAIQMTQSPSSLSASVGDRVTITCRASQGIRNDLGWYQQKPGKAPELLIYAASSLQSGVPSRFSGSGSGTDFTLTISSLQPEDFATYYCLQDYNYPLTFGPGTKVDIKTTTPAPRPPTPAPTIASQPLSLRPEACRPAAGGAVHTRGLDFACDIYIWAPLAGTCGVLLLSLVITKRGRKKLLYIFKQPFMRPVQTTQEEDGCSCRFPEEEEGGCELRVKFSRSADAPAYQQGQNQLYNELNLGRREEYDVLDKRRGRDPEMGGKPRRKNPQEGLYNELQKDKMAEAYSEIGMKGERRRGKGHDGLYQGLSTATKDTYDALHMQALPPR
notes: member of group m44; also called 2G1-R2S anti-DLL3 CAR with safety switch, on primary T cells
B4: 4H8 RSR (other)
CAR: GGGGSCPYSNPSLCGGGGSQVQLQQSGPGLVKPSQTLSLTCAISGDSVSSNSATWNWIRQSPSRGLEWLGRTYYRSKWYDDYAVSVKSRITINPDTSKNHLSLHLNSVTPEDTAVYYCAGGGLVGAPDGFDVWGQGTMVTVSSGGGGSGGGGSGGGGSGGGGSQSVLTQPPSASGTPGQRVTISCSGSSSNIGSDPVNWYQQLPGTAPKLLIYSNNQRPSGVPDRFSGSKSGTSASLAISGLQSEDEADYYCSAWDDSLNGYVFGTGTKVTVLGGGGSCPYSNPSLCGGGGSTTTPAPRPPTPAPTIASQPLSLRPEACRPAAGGAVHTRGLDFACDIYIWAPLAGTCGVLLLSLVITKRGRKKLLYIFKQPFMRPVQTTQEEDGCSCRFPEEEEGGCELRVKFSRSADAPAYQQGQNQLYNELNLGRREEYDVLDKRRGRDPEMGGKPRRKNPQEGLYNELQKDKMAEAYSEIGMKGERRRGKGHDGLYQGLSTATKDTYDALHMQALPPR
notes: member of group m45; also called 4H8-RSR anti-DLL3 CAR with safety switch, on primary T cells
B5: 4H8 R2S (other)
CAR: GGGGSCPYSNPSLCGGGGSCPYSNPSLCGGGGSQVQLQQSGPGLVKPSQTLSLTCAISGDSVSSNSATWNWIRQSPSRGLEWLGRTYYRSKWYDDYAVSVKSRITINPDTSKNHLSLHLNSVTPEDTAVYYCAGGGLVGAPDGFDVWGQGTMVTVSSGGGGSGGGGSGGGGSGGGGSQSVLTQPPSASGTPGQRVTISCSGSSSNIGSDPVNWYQQLPGTAPKLLIYSNNQRPSGVPDRFSGSKSGTSASLAISGLQSEDEADYYCSAWDDSLNGYVFGTGTKVTVLTTTPAPRPPTPAPTIASQPLSLRPEACRPAAGGAVHTRGLDFACDIYIWAPLAGTCGVLLLSLVITKRGRKKLLYIFKQPFMRPVQTTQEEDGCSCRFPEEEEGGCELRVKFSRSADAPAYQQGQNQLYNELNLGRREEYDVLDKRRGRDPEMGGKPRRKNPQEGLYNELQKDKMAEAYSEIGMKGERRRGKGHDGLYQGLSTATKDTYDALHMQALPPR
notes: member of group m45; also called 4H8-R2S anti-DLL3 CAR with safety switch, on primary T cells
B6: 10G1-K RSR (other)
CAR: GGGGSCPYSNPSLCGGGGSEVQLLESGGGLVQPGGSLRLSCAASGFTFSSYAMNWVRQAPGKGLEWVSTISGSGGSTYYADSVKGRFTISRDNSKNTLYLQMNSLRAEDTAVFYCAIDPEYYDILTGGDYWGQGTLVTVSSGGGGSGGGGSGGGGGSGGGGSDIQMTQSPSAMSASVGDRVTITCRASQGISNYLAWFQQKPGKVPKRLIYAASSLQSGVPSRFSGSGSGTEFTLTISSLQPEDFATYFCLQHDSFPLTFGGGTKVEIKGGGGSCPYSNPSLCGGGGSTTTPAPRPPTPAPTIASQPLSLRPEACRPAAGGAVHTRGLDFACDIYIWAPLAGTCGVLLLSLVITKRGRKKLLYIFKQPFMRPVQTTQEEDGCSCRFPEEEEGGCELRVKFSRSADAPAYQQGQNQLYNELNLGRREEYDVLDKRRGRDPEMGGKPRRKNPQEGLYNELQKDKMAEAYSEIGMKGERRRGKGHDGLYQGLSTATKDTYDALHMQALPPR
notes: member of group m46; also called 10G1-K RSR anti-DLL3 CAR with safety switch, on primary T cells
B7: 10G1-K R2S (other)
CAR: GGGGSCPYSNPSLCGGGGSCPYSNPSLCGGGGSEVQLLESGGGLVQPGGSLRLSCAASGFTFSSYAMNWVRQAPGKGLEWVSTISGSGGSTYYADSVKGRFTISRDNSKNTLYLQMNSLRAEDTAVFYCAIDPEYYDILTGGDYWGQGTLVTVSSGGGGSGGGGSGGGGGSGGGGSDIQMTQSPSAMSASVGDRVTITCRASQGISNYLAWFQQKPGKVPKRLIYAASSLQSGVPSRFSGSGSGTEFTLTISSLQPEDFATYFCLQHDSFPLTFGGGTKVEIKTTTPAPRPPTPAPTIASQPLSLRPEACRPAAGGAVHTRGLDFACDIYIWAPLAGTCGVLLLSLVITKRGRKKLLYIFKQPFMRPVQTTQEEDGCSCRFPEEEEGGCELRVKFSRSADAPAYQQGQNQLYNELNLGRREEYDVLDKRRGRDPEMGGKPRRKNPQEGLYNELQKDKMAEAYSEIGMKGERRRGKGHDGLYQGLSTATKDTYDALHMQALPPR
notes: member of group m46; also called 10G1-K-R2S anti-DLL3 CAR with safety switch, on primary T cells
B8: anti-DLL3 antibody 4E6 (antibody, V domains shown)
VH: QVQLQESGPGLVKPSETLSLTCTVSSDSISSYYWSWIRQPPGKGLEWISYIYYSGISNYNPSLKSRVSISVDTSKNQFSLRLSSVTAADTAVYYCARISVAGFFFDNWGQGTLVTVSS
VL: EIMLTQSPDTLSLSPGERATLSCRASQSVSSSYLAWYQQKPGQAPRLLIYGASSRAAGVPDRFSGSGSGTDFTLTISRLAPEDFVVYYCQQYGISPLTFGGGTKVEIK
B9: 3E4 (antibody, V domains shown)
VH: QVQLQQWGAGLLKPSETLSLTCAVYGGSFSGYYWSWIRQPPGKGLEWIGEIIHSGSSNYNPSLKSRVSISVDTSKNQFSLKLSSVTAADTAVYYCSRGEYGSGSRFDYWGQGTLVTVSS
VL: AIQMTQSPSSLSASVGDRVAITCRASQGIRDDLGWYQQKPGKAPKLLIYAASSLQSGVPSRFSGSRSDTDFTLTISSLQPEDFATYYCLQDYDYPLTFGGGTKVEIK
notes: also called anti-DLL3 antibody 3E4 (purified, mouse IgG2A backbone)

Assays:
[1] = biological target: T1, human DLL3 on cells (endogenous on …); test: flow cytometry on DMS 273, DMS 454 and SHP-77 cells, 2 ug/ml antibody, PE anti-mouse IgG
[2] = biological target: T2, full length human DLL3 with N-terminal …; test: flow cytometry on CHO cells with full length and truncated human DLL3; column Binds to DLL3 Domain
Description: The samples were analyzed by flow cytometry. […] Signals from the PE channel are shown on the x-axis and counts are shown on the y-axis.

[3] = biological target: T3, Flag tagged recombinant DLL3 (Adipogen); test: flow cytometry, primary T cells with the CAR, Flag tagged recombinant DLL3, PE anti-Flag

Row | Binder | binding result [1] | binding result [2] | Rec-DLL3+ gate, percent of live CD3+ cells [3]
1 | B1 | binds | binds | –
2 | B2 | – | – | 60.7%
3 | B3 | – | – | 66%
4 | B4 | – | – | 51.9%
5 | B5 | – | – | 58.6%
6 | B6 | – | – | 42.7%
7 | B7 | – | – | 39.3%
8 | B8 | binds | binds | –
9 | B9 | binds | – | –
